Data published in article PMC4077652, “An Unstable Th Epitope of P. falciparum Fosters Central Memory T Cells and Anti-CS Antibody Responses” (PLoS ONE, 2014).
Several values for one entry are separate records, joined by “and”; a condition that tells them apart may be missing. Identical values can stand only once. Like-named read-outs stand apart in the source and are kept apart here.

Experiments:
[1] = target: soluble recombinant HLA-DR4 (HLA-DRβ1*04:01) (human); test: ELISA
[2] = target: soluble recombinant HLA-DR4 (HLA-DRβ1*04:01) (human); test: ELISA; remark: listed apart in the source
[3] = target: soluble recombinant HLA-DR4 (HLA-DRβ1*04:01) (human)
[4] = target: soluble recombinant HLA-DR4 (HLA-DRβ1*04:01) (human); test: dissociation kinetics (LB3.1 capture, europium-streptavidin time-resolved fluorescence)
[5] = target: soluble recombinant HLA-DR4 (HLA-DRβ1*04:01) (human); test: ELISA; apparent Kd; direct binding of biotin-labeled peptide to DR4 as in the DR-ELISA (72 h), binding reactions set up with 1 µM HLA-DM

Substance: HA 306-318 peptide, unlabeled
- IC50 [1]: 310 nM
- IC50 [2]: 172000 nM

Substance: QNT-5 332-345 peptide, unlabeled
- IC50 [1]: 1700 nM

Substance: QNT-Y peptide (QNT-5 analogue L335Y), unlabeled
- IC50 [1]: 130 nM

Substance: biotin-labeled HA 306-318 peptide
- half-life [3]: 620 h

Substance: biotin-labeled T* 326-345 peptide (NF-54 variant)
- Kd [1]: 248 nM and 123 nM

Substance: biotin-labeled T*-1 327-338 peptide
- Kd [1]: 42.6 nM
- half-life [4]: 63.9 h
- half-life with HLA-DM [4]: 4.9 h
- Kd [5]: 51.6 nM
